# T1: PnsB1 (Arabidopsis thaliana (endogenous in the …, UniProt Q9S9N6 45-461))
# T1 sequence (looked up): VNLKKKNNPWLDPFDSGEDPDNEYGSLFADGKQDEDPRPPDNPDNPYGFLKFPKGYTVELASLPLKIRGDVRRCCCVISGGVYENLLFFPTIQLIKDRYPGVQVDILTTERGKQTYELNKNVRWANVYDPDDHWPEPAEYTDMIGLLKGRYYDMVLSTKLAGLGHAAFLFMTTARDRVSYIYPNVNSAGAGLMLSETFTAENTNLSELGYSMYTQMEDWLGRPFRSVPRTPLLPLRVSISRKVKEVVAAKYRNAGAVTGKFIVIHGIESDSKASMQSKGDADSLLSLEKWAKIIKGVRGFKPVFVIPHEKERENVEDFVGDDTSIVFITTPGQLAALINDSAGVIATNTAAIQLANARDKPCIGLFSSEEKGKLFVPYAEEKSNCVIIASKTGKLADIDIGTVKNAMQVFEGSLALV
# T2: NdhD (Arabidopsis thaliana (endogenous in the …, UniProt P26288 1-500))
# T2 sequence (looked up): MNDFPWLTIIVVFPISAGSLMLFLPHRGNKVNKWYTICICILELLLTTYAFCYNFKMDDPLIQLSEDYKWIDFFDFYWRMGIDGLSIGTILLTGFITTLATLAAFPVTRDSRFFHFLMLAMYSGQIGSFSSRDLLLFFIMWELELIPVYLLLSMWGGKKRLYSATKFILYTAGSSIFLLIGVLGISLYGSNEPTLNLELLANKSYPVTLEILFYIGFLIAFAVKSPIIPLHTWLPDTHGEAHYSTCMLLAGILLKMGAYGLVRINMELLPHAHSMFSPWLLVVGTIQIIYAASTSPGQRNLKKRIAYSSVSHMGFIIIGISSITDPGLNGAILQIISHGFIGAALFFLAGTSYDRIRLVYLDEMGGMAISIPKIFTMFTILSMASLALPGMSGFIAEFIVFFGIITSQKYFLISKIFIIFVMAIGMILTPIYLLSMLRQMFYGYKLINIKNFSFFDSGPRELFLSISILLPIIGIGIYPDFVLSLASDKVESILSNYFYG
# T3: Lhca6 (Arabidopsis thaliana (endogenous in the …, UniProt Q8LCQ4 34-270))
# T3 sequence (looked up): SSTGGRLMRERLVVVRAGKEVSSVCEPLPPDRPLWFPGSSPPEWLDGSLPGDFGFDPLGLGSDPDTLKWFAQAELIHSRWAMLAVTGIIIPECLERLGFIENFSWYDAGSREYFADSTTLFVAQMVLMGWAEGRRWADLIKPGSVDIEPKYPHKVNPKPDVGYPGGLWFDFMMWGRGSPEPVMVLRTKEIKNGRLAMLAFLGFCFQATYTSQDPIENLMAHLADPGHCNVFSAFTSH
# T4: PnsL1 (Arabidopsis thaliana (endogenous in the …, UniProt O80634 81-238))
# T4 sequence (looked up): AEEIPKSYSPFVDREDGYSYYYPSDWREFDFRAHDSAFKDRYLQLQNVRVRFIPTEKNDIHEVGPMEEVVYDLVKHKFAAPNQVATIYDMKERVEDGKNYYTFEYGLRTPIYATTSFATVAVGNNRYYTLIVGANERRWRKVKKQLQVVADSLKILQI
# T5: PnsL2 (Arabidopsis thaliana (endogenous in the …, UniProt Q9XI73 69-190))
# T5 sequence (looked up): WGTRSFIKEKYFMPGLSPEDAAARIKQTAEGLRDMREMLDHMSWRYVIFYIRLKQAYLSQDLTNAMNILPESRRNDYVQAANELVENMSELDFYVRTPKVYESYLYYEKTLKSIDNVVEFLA
# T6: Lhca5 (Arabidopsis thaliana (endogenous in the …, UniProt Q9C639 33-256))
# T6 sequence (looked up): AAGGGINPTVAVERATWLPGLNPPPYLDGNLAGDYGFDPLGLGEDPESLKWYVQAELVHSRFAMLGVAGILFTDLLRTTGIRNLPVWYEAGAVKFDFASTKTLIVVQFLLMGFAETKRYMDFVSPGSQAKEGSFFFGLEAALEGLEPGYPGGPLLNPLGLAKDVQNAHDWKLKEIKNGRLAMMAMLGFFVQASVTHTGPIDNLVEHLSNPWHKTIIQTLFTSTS
# B1: PnsB4 (natural protein, UniProt Q8RXS1 25-175, looked up)
# chain: QNSGPNHGYWLSKNVNEKRERNLMRGSLCVRKALPHDLPLMAVMVQQIEGMRDIITEKHVWHLSDKAIKNVYMFYIMFTCWGCLYFGSAKDPFYDSEEYRGDGGDGTGYWVYETQEDIEEKARAELWREELIEEIEQKVGGLRELEEAVTK
# B2: PnsB5 (natural protein, UniProt Q9FG89 49-212, looked up)
# chain: AAGLSQIEPDINEDPIGQFETNSIEMEDFKYGYYDGAHTYYEGEVQKGTFWGAIADDIAAVDQTNGFQGLISCMFLPAIALGMYFDAPGEYLFIGAALFTVVFCIIEMDKPDQPHNFEPQIYKLERGARDKLINDYNTMSIWDFNDKYGDVWDFTIEKDDIATR
# Tests used:
# Experiment in all cases: cryo-EM structure
# PnsB1 = target: T1, PnsB1
# PnsB5 = target: B2
# NdhD = target: T2, NdhD
# Lhca6 = target: T3, Lhca6
# PnsB4 = target: B1
# NdhF = NdhF (Arabidopsis thaliana (endogenous in the …, UniProt P56752 1-746))
# Chain of NdhF (Arabidopsis thaliana (P56752 whole entry): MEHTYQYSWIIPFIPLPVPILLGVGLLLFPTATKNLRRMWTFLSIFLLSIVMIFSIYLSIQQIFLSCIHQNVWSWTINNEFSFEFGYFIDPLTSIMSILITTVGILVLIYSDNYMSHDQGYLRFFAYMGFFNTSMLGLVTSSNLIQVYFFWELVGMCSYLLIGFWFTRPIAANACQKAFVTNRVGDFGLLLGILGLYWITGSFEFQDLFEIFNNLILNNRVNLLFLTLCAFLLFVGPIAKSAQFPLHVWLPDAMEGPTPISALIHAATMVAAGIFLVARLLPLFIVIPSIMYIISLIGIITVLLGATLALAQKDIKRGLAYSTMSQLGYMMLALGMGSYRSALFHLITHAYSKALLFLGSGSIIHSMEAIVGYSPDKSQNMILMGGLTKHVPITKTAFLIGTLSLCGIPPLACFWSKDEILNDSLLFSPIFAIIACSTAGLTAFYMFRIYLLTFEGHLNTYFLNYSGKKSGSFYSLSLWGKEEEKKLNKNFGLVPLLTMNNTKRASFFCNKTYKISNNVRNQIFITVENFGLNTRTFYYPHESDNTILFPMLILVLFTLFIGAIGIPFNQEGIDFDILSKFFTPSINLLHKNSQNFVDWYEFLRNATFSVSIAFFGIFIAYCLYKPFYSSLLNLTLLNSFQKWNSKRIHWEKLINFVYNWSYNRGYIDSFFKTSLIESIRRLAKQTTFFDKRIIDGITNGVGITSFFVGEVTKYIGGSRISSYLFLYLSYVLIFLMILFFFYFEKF
# PnsL1 = target: T4, PnsL1
# PnsL2 = target: T5, PnsL2
# Lhca5 = target: T6, Lhca5
Binder,binding result (PnsB1),binding result (NdhD),binding result (PnsL1),binding result (PnsL2),also measured
B1,binds,binds,–,–,binding result (PnsB5): binds
B2,binds,binds,–,–,binding result (Lhca6): binds
PnsL3 (natural protein) not shown,–,binds,–,–,binding result (PnsB4): binds; binding result (NdhF): binds
"NdhC (natural protein, UniProt P56751 1-120, looked up) MFLLYEYDIFWAFLLISSAIPVLAFLISGVLSPIRKGPEKLSSYESGIEPIGDAWLQFRIRYYMFALVFVVFDVETVFLYPWAMSFDVLGVSAFIEAFIFVLILILGLVYAWRKGALEWS",–,–,binds,binds,–
"NdhE (natural protein, UniProt P26289 1-101, looked up) MILEHVLVLSAYLFLIGLYGLITSRNMVRALMCLELILNAVNMNFVTFSDFFDNSQLKGEIFCIFVIAIAAAEAAIGLAIVSSIYRNRKSIRINQSTLLNK",–,–,binds,binds,–
"Lhca1 (natural protein, UniProt Q01667 36-241, looked up) AGNVGRIRMAAHWMPGEPRPAYLDGSAPGDFGFDPLGLGEVPANLERYKESELIHCRWAMLAVPGILVPEALGYGNWVKAQEWAALPGGQATYLGNPVPWGTLPTILAIEFLAIAFVEHQRSMEKDPEKKKYPGGAFDPLGYSKDPKKLEELKVKEIKNGRLALLAFVGFCVQQSAYPGTGPLENLATHLADPWHNNIGDIVIPFN",–,–,–,–,binding result (Lhca5): binds
